What follows are sequences tested on Escherichia coli TOP10 (assay: shrunken log2 fold change of peptide-encoding DNA abundance (4.5 h post-induction vs induction); higher = less antimicrobial activity (less host growth inhibition)). Settings: time post-induction: 4.5 h; library: site-saturation at positions 5, 18, 19, 20.
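Note: peptides expressed intracellularly from a pBAD plasmid library in pooled LB shake-flask culture, induced with 0.3% L-arabinose, DNA abundance read by NGS, three biological replicates, DESeq2 with apeglm shrinkage.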

| Sequence | shrunken log2 fold change |
| --- | --- |
| RRIRDRPPRLPRPRPRPYYGPRP | 0.127 |
| RRIRARPPRLPRPRPRPGKLPRP | 0.149 |
| RRIRARPPRLPRPRPRPPCHPRP | 0.219 |
| RRIRSRPPRLPRPRPRPHFAPRP | 0.0285 |
| RRIRCRPPRLPRPRPRPEKCPRP | 0.209 |
| RRIRDRPPRLPRPRPRPVQAPRP | 0.0233 |
| RRIRYRPPRLPRPRPRPNDFPRP | -0.0506 |
| RRIRNRPPRLPRPRPRPEGGPRP | -0.00659 |
| RRIRARPPRLPRPRPRPPYVPRP | -0.131 |
| RRIRYRPPRLPRPRPRPMSPPRP | -0.0952 |
| RRIRKRPPRLPRPRPRPDPRPRP | 1.19 |
| RRIRIRPPRLPRPRPRPKDRPRP | -0.409 |
| RRIRDRPPRLPRPRPRPWEAPRP | -0.0176 |
| RRIRIRPPRLPRPRPRPEIAPRP | -0.141 |
| RRIRLRPPRLPRPRPRPDINPRP | -0.665 |
| RRIRNRPPRLPRPRPRPDMWPRP | -0.119 |
| RRIRYRPPRLPRPRPRPNCCPRP | -0.518 |
| RRIRYRPPRLPRPRPRPGANPRP | -0.0888 |
| RRIRVRPPRLPRPRPRPLYTPRP | -0.345 |
| RRIRPRPPRLPRPRPRPWPPPRP | 0.504 |
| RRIRWRPPRLPRPRPRPQAKPRP | 0.00651 |
| RRIRTRPPRLPRPRPRPVKQPRP | -0.00945 |
| RRIRNRPPRLPRPRPRPAFLPRP | -0.0726 |
| RRIRHRPPRLPRPRPRPRYLPRP | -0.0229 |
| RRIRYRPPRLPRPRPRPDQQPRP | -0.0144 |

| Sequence | shrunken log2 fold change |
| --- | --- |
| RRIRYRPPRLPRPRPRPCKLPRP | -0.698 |
| RRIRIRPPRLPRPRPRPLRVPRP | 0.291 |
| RRIRSRPPRLPRPRPRPEHTPRP | 0.262 |
| RRIRLRPPRLPRPRPRPGTGPRP | -0.0967 |
| RRIRERPPRLPRPRPRPHAKPRP | 0.0118 |
| RRIRQRPPRLPRPRPRPQDEPRP | 0.104 |
| RRIRLRPPRLPRPRPRPVPPPRP | 0.245 |
| RRIRKRPPRLPRPRPRPQHWPRP | 0.474 |
| RRIRRRPPRLPRPRPRPWDHPRP | 0.0105 |
| RRIRRRPPRLPRPRPRPSCIPRP | -0.596 |
| RRIRLRPPRLPRPRPRPLRIPRP | -0.031 |
| RRIRMRPPRLPRPRPRPNKMPRP | -0.134 |
| RRIRTRPPRLPRPRPRPKKWPRP | -0.0616 |
| RRIRKRPPRLPRPRPRPKVPPRP | 0.225 |
| RRIRRRPPRLPRPRPRPCAKPRP | 0.164 |
| RRIRQRPPRLPRPRPRPQTKPRP | -0.133 |
| RRIRWRPPRLPRPRPRPEKTPRP | 0.191 |
| RRIRFRPPRLPRPRPRPWICPRP | -1.05 |
| RRIRFRPPRLPRPRPRPTIYPRP | -0.689 |
| RRIRYRPPRLPRPRPRPEMGPRP | -0.0771 |
| RRIRNRPPRLPRPRPRPVTVPRP | -0.404 |
| RRIRTRPPRLPRPRPRPEFRPRP | -0.0543 |
| RRIRGRPPRLPRPRPRPICSPRP | 0.122 |
| RRIRYRPPRLPRPRPRPSYKPRP | -1.22 |
| RRIRFRPPRLPRPRPRPNEPPRP | -0.00783 |

| Sequence | shrunken log2 fold change |
| --- | --- |
| RRIRYRPPRLPRPRPRPCLLPRP | -1.04 |
| RRIRSRPPRLPRPRPRPTQAPRP | 0.0131 |
| RRIRIRPPRLPRPRPRPTPGPRP | 0.131 |
| RRIRLRPPRLPRPRPRPKSQPRP | 0.00795 |
| RRIRRRPPRLPRPRPRPDMEPRP | -0.0393 |
| RRIRSRPPRLPRPRPRPSVAPRP | 0.575 |
| RRIRMRPPRLPRPRPRPYGVPRP | -0.147 |
| RRIRLRPPRLPRPRPRPATTPRP | 0.467 |
| RRIRQRPPRLPRPRPRPQGTPRP | 0.193 |
| RRIRARPPRLPRPRPRPAVHPRP | 0.175 |
| RRIRIRPPRLPRPRPRPANSPRP | -0.204 |
| RRIRDRPPRLPRPRPRPYPKPRP | -0.143 |
| RRIRCRPPRLPRPRPRPYRKPRP | -0.49 |
| RRIRYRPPRLPRPRPRPSFYPRP | -1.06 |
| RRIRNRPPRLPRPRPRPHVAPRP | -0.0498 |
| RRIRKRPPRLPRPRPRPHWIPRP | -0.0313 |
| RRIRARPPRLPRPRPRPEFFPRP | 0.33 |
| RRIRYRPPRLPRPRPRPWLYPRP | -0.613 |
| RRIRARPPRLPRPRPRPPVFPRP | 0.416 |
| RRIRERPPRLPRPRPRPVFYPRP | -0.437 |
| RRIRIRPPRLPRPRPRPWGCPRP | -0.307 |
| RRIRMRPPRLPRPRPRPDGRPRP | -0.00101 |
| RRIRFRPPRLPRPRPRPCFDPRP | -0.121 |
| RRIRDRPPRLPRPRPRPYAMPRP | 0.168 |
| RRIRDRPPRLPRPRPRPHMPPRP | 0.0902 |

Source: the supplement of paper PMC9112550, “Optimization of the antimicrobial peptide Bac7 by deep mutational scanning” (BMC Biology, 2022)
